According to patent US20240360228A1 (BIOLEGEND, published 2024):
Blank lines part the entries; values can stand above or below the binder they belong to.

How the values were obtained:
[1] = biological target: human chemokine (C-C motif) receptor 8 (CCR8) (human, UniProt P51685 1-355); experiment: cell-based or functional assay
[2] = biological target: T1, human CCR8 (human, UniProt P51685 1-355); experiment: flow blocking, PBMC CCR8+CD3+; competitor PE-AB5
T1 construct: Native CCR8 on human PBMC (CCR8+ CD3+ or CCR8+ CD4+ lymphocytes); also called chemokine (C-C motif) receptor 8
Experimental: (§1) For blocking studies, 100 μL of the cell suspension were incubated with 10 μg purified isotype control, AB1, AB2, AB3, AB4, AB5, AB8, AB9, AB10, AB11, AB12, AB13, AB14, AB15, and Commercial ABI antibodies, or isotype control, as blocking agents.
(§2) After incubation with the blocking agent, the cells were incubated with 0.25 μg of the indicated PE-conjugated antibody plus anti-human CD4 APC or anti-human CD3 for another 15 minutes in the dark and then washed 2 times with Cell Staining Buffer, and acquired in a FACSCanto II flow cytometer (BD Biosciences); the data was analyzed using FCS Express (De Novo Software); MFI correspond to the CCR8+ CD4+ lymphocytes or CCR8+ CD3+ lymphocytes.
(§3) Percentage original MFI was calculated by dividing the MFI of samples blocked with AB1, AB2, AB3, AB4, AB5, AB6, AB7, AB8, AB9, AB10, AB11, AB12, AB13, AB14, AB15, and Commercial ABI antibodies, by the MFI of samples blocked with the corresponding isotype control. This value was subtracted from 100 to get a blocking percentage. The formula is shown below: […]

[3] = biological target: T1, human CCR8; experiment: flow blocking, PBMC CCR8+CD3+; competitor PE-AB6
Experimental: as §1, §2, §3

[4] = biological target: T1, human CCR8; experiment: flow blocking, PBMC CCR8+CD3+; competitor PE-AB7
Experimental: as §1, §2, §3

[5] = biological target: T1, human CCR8; experiment: flow blocking, PBMC CCR8+CD3+; competitor PE-AB8
Experimental: as §1, §2, §3

[6] = biological target: T1, human CCR8; experiment: flow blocking, PBMC CCR8+CD4+; competitor PE-AB1
Experimental: as §1, §2, §3

[7] = biological target: T1, human CCR8; experiment: flow blocking, PBMC CCR8+CD4+; competitor PE-AB2
Experimental: as §1, §2, §3

[8] = biological target: T1, human CCR8; experiment: flow blocking, PBMC CCR8+CD4+; competitor PE-AB3
Experimental: as §1, §2, §3

[9] = biological target: T1, human CCR8; experiment: flow blocking, PBMC CCR8+CD4+; competitor PE-AB4
Experimental: as §1, §2, §3

[10] = biological target: T1, human CCR8; experiment: flow blocking, PBMC CCR8+CD4+; competitor PE-AB5
Experimental: as §1, §2, §3

[11] = biological target: T1, human CCR8; experiment: flow blocking, PBMC CCR8+CD4+; competitor PE-AB6
Experimental: as §1, §2

[12] = biological target: T1, human CCR8; experiment: flow blocking, PBMC CCR8+CD3+; competitor PE-433H
Experimental: as §1, §2, §3

[13] = biological target: T1, human CCR8; experiment: flow blocking, PBMC CCR8+CD3+; competitor PE-AB10
Experimental: as §1, §2, §3

[14] = biological target: T1, human CCR8; experiment: flow blocking, PBMC CCR8+CD3+; competitor PE-AB11
Experimental: as §1, §2, §3

[15] = biological target: T1, human CCR8; experiment: flow blocking, PBMC CCR8+CD3+; competitor PE-AB12
Experimental: as §1, §2, §3

[16] = biological target: T1, human CCR8; experiment: flow blocking, PBMC CCR8+CD3+; competitor PE-AB13
Experimental: as §1, §2, §3

[17] = biological target: T1, human CCR8; experiment: flow blocking, PBMC CCR8+CD3+; competitor PE-AB14
Experimental: as §1, §2, §3

[18] = biological target: T1, human CCR8; experiment: flow blocking, PBMC CCR8+CD3+; competitor PE-AB15
Experimental: as §1, §2, §3

[19] = biological target: T1, human CCR8; experiment: flow blocking, PBMC CCR8+CD4+; competitor PE-433H
Experimental: as §1, §2

[20] = biological target: T1, human CCR8; experiment: flow blocking, PBMC CCR8+CD4+; competitor PE-AB10
Experimental: as §1, §2, §3

[21] = biological target: T1, human CCR8; experiment: flow blocking, PBMC CCR8+CD4+; competitor PE-AB11
Experimental: as §1, §2, §3

[22] = biological target: T1, human CCR8; experiment: flow blocking, PBMC CCR8+CD4+; competitor PE-AB12
Experimental: as §1, §2, §3

[23] = biological target: T1, human CCR8; experiment: flow blocking, PBMC CCR8+CD4+; competitor PE-AB13
Experimental: as §1, §2

[24] = biological target: T1, human CCR8; experiment: flow blocking, PBMC CCR8+CD4+; competitor PE-AB14
Experimental: as §1, §2

[25] = biological target: T1, human CCR8; experiment: flow blocking, PBMC CCR8+CD4+; competitor PE-AB15
Experimental: as §1, §2, §3

[26] = biological target: T1, human CCR8; experiment: flow blocking, PBMC CCR8+CD3+; competitor PE-L263G8
Experimental: as §1, §2, §3

T1 sequence (P51685 whole entry): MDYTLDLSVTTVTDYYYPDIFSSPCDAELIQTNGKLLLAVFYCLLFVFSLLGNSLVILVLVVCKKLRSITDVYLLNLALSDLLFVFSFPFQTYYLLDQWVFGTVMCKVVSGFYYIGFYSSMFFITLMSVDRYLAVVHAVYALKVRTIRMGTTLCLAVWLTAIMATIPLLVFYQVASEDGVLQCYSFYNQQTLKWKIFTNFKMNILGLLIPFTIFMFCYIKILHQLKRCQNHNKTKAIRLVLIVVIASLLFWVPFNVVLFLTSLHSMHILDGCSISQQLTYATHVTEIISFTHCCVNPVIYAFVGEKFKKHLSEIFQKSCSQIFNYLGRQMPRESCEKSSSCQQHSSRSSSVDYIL
human chemokine (C-C motif) receptor 8 (CCR8), sequence (P51685 whole entry): as above

B1: AB7 (antibody, V domains shown)
VH: AVQLVESGGGLVQPKESLKISCAASGFTFSYAAMYWVRQTPGKGLEWVARIRTKPNNYATYYADSVKGRFTISRDDSKSMVYLQMDNLKSEDTAMYYCNIMGITRGYYFDYWGQGVMVTVSS
VL: DIQMTQSPSFLSASVGDRVTINCKASQNINRYLNWYQQQLGEAPKLLIYNANNLQTGIPSRFSGSRSGTDFTLTISSLQPEDVATYFCLQHNSWPWTFGGGTKLELK
% hCCR8-Ba/F3 - THP-1 complexes [1]: 2.2%

B2: AB6 (antibody, V domains shown)
VH: QVQLKESGPGLVQPSQTLSLTCTVSGFSLTSYHVSWVRQPPGKGLEWMGVIWTGGSTTYNSLLKSRLSISRDISKSQVFLKMNSLQTEDTATYYCARGGTVVKGGFAYWGQGTLVTVSS
VL: DIQMTQSPASLSASLEEIVTITCQASQDIGNRLSWYQQKPGKSPQLLIYGATSLADGVPSRFSGSRSGTQYSLKISRLQVEDIGIYYCLQAYSTPLTFGSGTKLEIK
% hCCR8-Ba/F3 - THP-1 complexes [1]: 1.88%

More lines, now with the values ahead:

% Blocking [2]: -8.37%
MFI [2]: 1070
% Blocking [3]: -27%
MFI [3]: 1170
% Blocking [4]: 52.1%
MFI [4]: 559
% Blocking [5]: 51.6%
MFI [5]: 575
% Blocking [6]: -47.1%
% Positive cells [6]: 2.28%
% Blocking [7]: -40.2%
% Positive cells [7]: 2.3%
% Blocking [8]: -50.9%
% Positive cells [8]: 2.58%
% Blocking [9]: -38.8%
% Positive cells [9]: 2.47%
% Blocking [10]: -17.8%
% Positive cells [10]: 2.38%
% Blocking [11]: -7.92%
% Positive cells [11]: 2.18%
% Blocking [12]: 32.1%
MFI [12]: 602
% Blocking [13]: 30.7%
MFI [13]: 552
% Blocking [14]: 55.2%
MFI [14]: 416
% Blocking [15]: 47.6%
MFI [15]: 536
% Blocking [16]: 43.6%
MFI [16]: 499
% Blocking [17]: 38.9%
MFI [17]: 528
% Blocking [18]: 43.3%
MFI [18]: 487
% Blocking [19]: 28.4%
% Positive cells [19]: 1.26%
% Blocking [20]: 93.2%
% Positive cells [20]: 0.1%
% Blocking [21]: 98.5%
% Positive cells [21]: 0.03%
% Blocking [22]: 98.9%
% Positive cells [22]: 0.02%
% Blocking [23]: 97.5%
% Positive cells [23]: 0.05%
% Blocking [24]: 89.2%
% Positive cells [24]: 0.14%
% Blocking [25]: 88.4%
% Positive cells [25]: 0.15%
% Blocking [26]: 10.2%
MFI [26]: 605
B3: AB10 (antibody, V domains shown)
VH: EVQLVETGGGLVQPKGSLKLSCAVSGFTFKTNAMNWVRQAPGKGLEWVARIRSKSNKYATYYADSVKDRFTISRDDSQSMLYLQMNNLKTEDTAMYYCVRGSEMGYYYAMDYWGQGTSVTVSS
VL: DIVMTQAAPSVPVTPGESVSISCRSSKSLLHSNGNTYLYWFLQRPGQSPQLLIYRMSNLASGVPDRFSGSGSGTAFTLRISRVEAEDVGVYYCMQHLEYPFTFGGGTKLEIK
notes: Hybridoma monoclonal; also called antibody 10; clone 10

% Blocking [2]: -14.7%
MFI [2]: 1130
% Blocking [3]: -17.2%
MFI [3]: 1080
% Blocking [4]: 46.1%
MFI [4]: 630
% Blocking [5]: 44.1%
MFI [5]: 664
% Blocking [6]: -36.8%
% Positive cells [6]: 2.12%
% Blocking [7]: -33.5%
% Positive cells [7]: 2.19%
% Blocking [8]: -19.3%
% Positive cells [8]: 2.04%
% Blocking [9]: -18.5%
% Positive cells [9]: 2.11%
% Blocking [10]: -7.92%
% Positive cells [10]: 2.18%
% Blocking [11]: 1.49%
% Positive cells [11]: 1.99%
% Blocking [12]: 8.18%
MFI [12]: 814
% Blocking [13]: 8.91%
MFI [13]: 726
% Blocking [14]: 5.33%
MFI [14]: 878
% Blocking [15]: 21.8%
MFI [15]: 800
% Blocking [16]: 24.6%
MFI [16]: 668
% Blocking [17]: 30.8%
MFI [17]: 598
% Blocking [18]: 30%
MFI [18]: 601
% Blocking [19]: 34.7%
% Positive cells [19]: 1.15%
% Blocking [20]: 96%
% Positive cells [20]: 0.06%
% Blocking [21]: 98%
% Positive cells [21]: 0.04%
% Blocking [22]: 99.4%
% Positive cells [22]: 0.01%
% Blocking [23]: 95.5%
% Positive cells [23]: 0.09%
% Blocking [24]: 99.2%
% Positive cells [24]: 0.01%
% Blocking [25]: -34.9%
% Positive cells [25]: 1.74%
% Blocking [26]: 11.8%
MFI [26]: 594
B4: AB13 (antibody, V domains shown)
VH: EVQLVETGGGLVQPKGSLKLSCAASGFTFNAYAMNWVRQAPGKGLEWVARIRTKSNNYATYYADSVKDRFTISRDDSQTMLYLQMNNLKTEDTAMYYCVRDRATVTTGRAMDYWGQGTSVTVSS
VL: DIVMTQAAPSLPVTPGESVSISCRSSKSLLHSNGNTYLYWFLQRAGQSPQLLIYRMSNLASGVPDRFSGSGSGTAFTLRISRVEAEDVGVYYCMQHLEYPFTFGSGTKLEIK
notes: Hybridoma monoclonal; also called antibody 13; clone 13

% Blocking [2]: -2.94%
MFI [2]: 1020
% Blocking [3]: -8.93%
MFI [3]: 1010
% Blocking [4]: 13.1%
MFI [4]: 1020
% Blocking [5]: 17.8%
MFI [5]: 977
% Blocking [6]: -31.6%
% Positive cells [6]: 2.04%
% Blocking [7]: -22.6%
% Positive cells [7]: 2.01%
% Blocking [8]: -26.3%
% Positive cells [8]: 2.16%
% Blocking [9]: -27%
% Positive cells [9]: 2.26%
% Blocking [10]: -27.7%
% Positive cells [10]: 2.58%
% Blocking [11]: -5.45%
% Positive cells [11]: 2.13%
% Blocking [12]: 43.3%
MFI [12]: 503
% Blocking [13]: 34.4%
MFI [13]: 522
% Blocking [14]: 42.7%
MFI [14]: 532
% Blocking [15]: 48%
MFI [15]: 531
% Blocking [16]: 34.6%
MFI [16]: 579
% Blocking [17]: 41.4%
MFI [17]: 506
% Blocking [18]: 52%
MFI [18]: 412
% Blocking [19]: 38.6%
% Positive cells [19]: 1.08%
% Blocking [20]: -2.7%
% Positive cells [20]: 1.52%
% Blocking [21]: 96.9%
% Positive cells [21]: 0.06%
% Blocking [22]: 98.3%
% Positive cells [22]: 0.03%
% Blocking [23]: 96.5%
% Positive cells [23]: 0.07%
% Blocking [24]: 99.2%
% Positive cells [24]: 0.01%
% Blocking [25]: 93.8%
% Positive cells [25]: 0.08%
% Blocking [26]: 36.6%
MFI [26]: 427
B5: AB11 (antibody, V domains shown)
VH: EVQLVESGGGLVQPKGSLKLSCAASGFAFNTYAMNWVRQAPGKGLEWIARLRSKSNFYATYYADSVKDRFTISRDDSQSMLYLQMNNLKTEDTAVYYCVRGRELGPSYAMDYWGQGTSVTVSS
VL: DIVMTQAAPSVPVTPGESVSISCRSSKSLLHSNGNTYLYWFLQRPGQSPQLLIYRMSNLASGVPDRFSGSGSGTAFTLRISRVEAEDVGVYYCMQHLEYPYTFGGGTKLEIK
notes: Hybridoma monoclonal; also called antibody 11; clone 11
